In the experiment the target is Recombinant P-selectin protein (UniProt P16109). The experiment is described as follows: SPR; BIAcore T200; recombinant P-selectin immobilised by carbodiimide chemistry on a CM4 sensor chip (ligand); PSGL-1-targeted and non-targeted liposomes as analyte. A general note: Surface plasmon resonance follows binding to a sensor surface in real time, without labels.
Sequence of UniProt P16109 (P16109 42-830): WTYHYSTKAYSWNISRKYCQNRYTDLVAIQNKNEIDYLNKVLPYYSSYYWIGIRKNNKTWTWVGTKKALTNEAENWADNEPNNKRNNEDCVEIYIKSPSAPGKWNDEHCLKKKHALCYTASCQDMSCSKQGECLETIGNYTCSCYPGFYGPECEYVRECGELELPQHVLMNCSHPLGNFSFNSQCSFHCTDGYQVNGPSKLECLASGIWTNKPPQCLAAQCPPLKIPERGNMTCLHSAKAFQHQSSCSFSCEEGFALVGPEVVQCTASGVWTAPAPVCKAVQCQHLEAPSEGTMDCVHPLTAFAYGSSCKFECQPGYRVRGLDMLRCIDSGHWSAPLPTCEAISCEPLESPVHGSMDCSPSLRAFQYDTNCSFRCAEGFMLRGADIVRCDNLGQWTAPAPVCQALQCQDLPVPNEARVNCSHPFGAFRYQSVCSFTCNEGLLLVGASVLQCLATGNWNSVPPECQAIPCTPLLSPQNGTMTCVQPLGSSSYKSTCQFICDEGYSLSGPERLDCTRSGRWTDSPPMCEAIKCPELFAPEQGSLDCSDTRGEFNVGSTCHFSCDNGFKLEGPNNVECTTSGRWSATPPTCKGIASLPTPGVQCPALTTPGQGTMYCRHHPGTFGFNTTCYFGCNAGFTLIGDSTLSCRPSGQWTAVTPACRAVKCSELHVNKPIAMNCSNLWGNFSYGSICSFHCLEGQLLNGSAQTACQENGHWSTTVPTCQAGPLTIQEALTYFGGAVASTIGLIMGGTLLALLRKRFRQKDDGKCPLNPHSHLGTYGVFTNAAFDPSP

Regarding “Recombinant P-selectin glycoprotein ligand-1 (PSGL-1) protein, conjugated to the surface of liposomes (from UniProt Q14242 42-412)”, the fold increase in binding against non-targeted liposomes is 8 fold.

These data come from paper PMC7699624.
